Assay results from article PMC7528652, “Xrn1p acts at multiple steps in the budding-yeast RNAi pathway to enhance the efficiency of silencing”.

Target: T1, Ago1p (WT) (Naumovozyma castellii, UniProt D5SHI8 2-1299)
T1 sequence: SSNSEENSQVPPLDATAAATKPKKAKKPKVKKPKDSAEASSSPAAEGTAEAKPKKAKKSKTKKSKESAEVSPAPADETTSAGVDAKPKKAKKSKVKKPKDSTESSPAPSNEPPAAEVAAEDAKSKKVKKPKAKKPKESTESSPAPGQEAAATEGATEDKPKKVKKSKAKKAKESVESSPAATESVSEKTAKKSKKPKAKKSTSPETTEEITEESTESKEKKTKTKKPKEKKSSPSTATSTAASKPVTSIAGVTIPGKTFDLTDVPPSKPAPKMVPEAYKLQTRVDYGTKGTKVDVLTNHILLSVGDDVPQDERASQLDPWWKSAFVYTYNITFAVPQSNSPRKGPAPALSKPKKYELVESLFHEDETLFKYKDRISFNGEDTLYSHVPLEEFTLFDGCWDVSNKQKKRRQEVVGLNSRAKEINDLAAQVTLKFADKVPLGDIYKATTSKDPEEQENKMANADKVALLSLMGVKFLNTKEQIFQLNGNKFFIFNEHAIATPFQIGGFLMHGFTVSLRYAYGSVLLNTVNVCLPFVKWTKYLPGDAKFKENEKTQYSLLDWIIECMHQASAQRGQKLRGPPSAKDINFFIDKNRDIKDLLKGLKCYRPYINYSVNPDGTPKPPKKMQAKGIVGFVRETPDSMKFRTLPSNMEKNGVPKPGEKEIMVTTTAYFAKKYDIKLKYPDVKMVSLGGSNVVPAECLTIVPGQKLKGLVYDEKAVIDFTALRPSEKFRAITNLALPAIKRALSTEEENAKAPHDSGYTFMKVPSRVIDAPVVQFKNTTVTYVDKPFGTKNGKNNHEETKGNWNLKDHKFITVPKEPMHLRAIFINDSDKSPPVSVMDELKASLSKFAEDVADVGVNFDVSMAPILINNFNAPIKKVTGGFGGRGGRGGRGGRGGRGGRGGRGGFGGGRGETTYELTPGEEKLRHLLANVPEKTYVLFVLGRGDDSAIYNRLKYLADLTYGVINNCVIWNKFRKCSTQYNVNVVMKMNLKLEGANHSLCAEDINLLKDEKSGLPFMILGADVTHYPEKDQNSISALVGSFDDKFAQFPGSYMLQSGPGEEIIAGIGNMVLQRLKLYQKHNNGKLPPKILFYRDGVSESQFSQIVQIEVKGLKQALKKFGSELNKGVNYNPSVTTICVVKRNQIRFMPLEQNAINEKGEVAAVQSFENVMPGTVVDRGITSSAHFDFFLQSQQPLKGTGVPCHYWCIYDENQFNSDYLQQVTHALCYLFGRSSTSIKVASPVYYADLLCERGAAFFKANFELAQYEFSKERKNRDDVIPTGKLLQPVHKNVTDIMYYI
Experiment: filter binding (nitrocellulose-nylon); preincubated with 200 nM WT Xrn1p: bound siRNA enhanced; 50 mM Hepes pH 7.6, 300 mM potassium glutamate, 10 mM NaCl, 5 mM Mg acetate, 1 mM EGTA, 1 mM EDTA, 10% glycerol, 0.01% NP-40, 5 mM DTT, 30 C
Conditions: protein: recombinant; tags: N-terminal 3xFLAG-SUMO-TEV in expression construct; tag state after purification not in material; label: 32P 5' end of guide strand (S68); 21 bp, 2 nt 3' overhangs on both strands

B1: miR-20a siRNA duplex (dsRNA)
RNA 1: UAAAGUGCUUAUAGUGCAGGUAG
RNA 2: ACCUGCACUAUAAGCACUUUAAG
- binding result: binds
